This data set addresses T1, N-succinyl-Ala-Ala-Pro-Phe-p-nitroanilide.
T1 chain: AAPF

Here are results for 1 protein from US20040052799.

B1: Recombinant H. pylori peptidyl-prolyl cis-trans isomerase (ppiB), His-tagged (protein)
chain: FIAIIEHLNDKSLSQRFMMKPIKTYDIKEEELAKTAYATIKTNKGNITLELFYKDAPQAVSNFVTLAKEGFYNGLNFHRVIAGFVAQGGCPYGTGTGGPEHRIKCEVAHNPNKHQRGSISMAHAGRDTGGSQFFLCFVDLPHLDGEHTVFGKITSAESLSVLDKIKQGDIIESVVFSPSL
For the protein B1, the kcat entry is given as “This corresponds to a kcat of 1.6 sec^-1”.
